In patent US20240309072A1:

Target: SARS-COV-2 Spike, Omicron variant BA.4 + R346T (BA.4.6) (SARS-COV-2), P0DTC2
Assay: cell-based or functional assay

Binder	Fold change over R10987 against D614G [fold]	pseudovirus neutralization IC50 [nM]
REGN14315 (antibody, V domains shown) VH: QVQLVQSGAEVKKPGSSVKVSCKASGDTFSTYAINWVRQAPGQGLEWMGRFIHIFGTANYAQKFQGRVTITADESTSTAYMELRSLRSEDTAVYYCARDGVDYGDYRPDYWGQGTLVTVSS VL: EIVLTQSPGTLSLSPGERATLSCRASQSVSSNYLAWYQQKPGQAPRLLIYGASSRATGIPERFSGSGSGTDFTLTISRLEPEDFAVYYCQQYGSSLYTFGQGTKLEIK	255	1.35
REGN14315 + REGN10987 (protein) VH 1: QVQLVQSGAEVKKPGSSVKVSCKASGDTFSTYAINWVRQAPGQGLEWMGRFIHIFGTANYAQKFQGRVTITADESTSTAYMELRSLRSEDTAVYYCARDGVDYGDYRPDYWGQGTLVTVSS VL 1: EIVLTQSPGTLSLSPGERATLSCRASQSVSSNYLAWYQQKPGQAPRLLIYGASSRATGIPERFSGSGSGTDFTLTISRLEPEDFAVYYCQQYGSSLYTFGQGTKLEIK VH 2: QVQLVESGGGVVQPGRSLRLSCAASGFTFSNYAMYWVRQAPGKGLEWVAVISYDGSNKYYADSVKGRFTISRDNSKNTLYLQMNSLRTEDTAVYYCASGSDYGDYLLVYWGQGTLVTVSS VL 2: QSALTQPASVSGSPGQSITISCTGTSSDVGGYNYVSWYQQHPGKAPKLMIYDVSKRPSGVSNRFSGSKSGNTASLTISGLQSEDEADYYCNSLTSISTWVFGGGTKLTVL	132	0.698
REGN10987 (antibody, V domains shown) VH: QVQLVESGGGVVQPGRSLRLSCAASGFTFSNYAMYWVRQAPGKGLEWVAVISYDGSNKYYADSVKGRFTISRDNSKNTLYLQMNSLRTEDTAVYYCASGSDYGDYLLVYWGQGTLVTVSS VL: QSALTQPASVSGSPGQSITISCTGTSSDVGGYNYVSWYQQHPGKAPKLMIYDVSKRPSGVSNRFSGSKSGNTASLTISGLQSEDEADYYCNSLTSISTWVFGGGTKLTVL	236	1.25
